Test results from patent US20240383982A1 (Genmab, published 2024).

Assays:
[1] = molecular target: T1, pig (Sus scrofa) B7H4, full length, on HEK-293F cells (pig, UniProt Q7Z7D3 26-282 (human entry)); assay: flow cytometry, HEK-293F cells transfected with pig B7H4 [panel Pig B7H4]
T1 construct: Uniprot F1SAY4; also called pig B7H4
T1 chain: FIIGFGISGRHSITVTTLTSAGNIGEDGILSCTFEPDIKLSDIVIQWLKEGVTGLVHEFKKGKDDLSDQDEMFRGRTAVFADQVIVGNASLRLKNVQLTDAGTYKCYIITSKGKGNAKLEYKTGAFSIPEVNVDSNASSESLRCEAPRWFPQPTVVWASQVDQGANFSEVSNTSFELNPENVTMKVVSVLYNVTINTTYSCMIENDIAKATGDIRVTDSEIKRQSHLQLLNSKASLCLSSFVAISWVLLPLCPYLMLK
Protocol: (§1) Cells (3×10⁴ cells/well) were incubated in polystyrene 96-well round-bottom plates (Greiner bio-one, cat. no. 650180) with serial dilutions of antibodies (ranging from 0.000458 to 30 μg/mL in 4-fold dilution steps) in 100 μL PBS/0.1% BSA/0.02% azide (staining buffer) at 4° C. for 30 min. Experiments were performed in technical duplicate. After washing twice in staining buffer, cells were incubated in 50 μL secondary antibody at 4° C. for 30 min. As a secondary antibody, R-Phycoerythrin (PE)-conjugated goat-anti-human IgG F(ab′)₂ (1:500 in FACS buffer; Jackson ImmunoResearch Laboratories, Inc., West Grove, PA, cat. no. 109-116-098), was used. Cells were washed twice in staining buffer, re-suspended in 30 μL FACS buffer containing Topro-3 (1:10,000 dilution) and analyzed on an iQue Screener (Intellicyt Corporation, USA). Binding curves were analyzed using non-linear regression (sigmoidal dose-response with variable slope) using GraphPad Prism V7.02 software (GraphPad Software, San Diego, CA, USA).

B7H4-IgV/B7H3-IgC = molecular target: T2, B7H4-IgV/B7H3-IgC; assay: flow cytometry, HEK cells transiently transfected with B7H4-IgV/B7H3-IgC, PE anti-human IgG F(ab')2 [panel B7H4-IgV/B7H3-IgC]
T2 construct: also called chimeric molecule with the IgV domain of B7H4 and the IgC domain of B7H3
T2 full-length chimeric protein on cells: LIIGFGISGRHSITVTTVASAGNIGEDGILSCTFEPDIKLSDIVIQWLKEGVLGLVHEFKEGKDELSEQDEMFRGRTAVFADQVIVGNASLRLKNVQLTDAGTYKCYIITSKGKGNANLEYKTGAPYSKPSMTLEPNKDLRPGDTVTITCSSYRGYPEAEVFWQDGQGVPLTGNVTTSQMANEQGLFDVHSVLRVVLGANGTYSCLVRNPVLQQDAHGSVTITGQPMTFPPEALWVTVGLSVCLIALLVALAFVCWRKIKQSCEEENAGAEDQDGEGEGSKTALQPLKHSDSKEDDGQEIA
Protocol: After washing twice in FACS buffer, cells were incubated with secondary antibody at 4° C. for 30 min. […] Next, cells were washed twice in FACS buffer, re-suspended in 20 μL FACS buffer and analyzed on an iQue Screener (Intellicyt Corporation, USA).
Further experiments were conducted to study the B7H4 domain specificity of the B7H4 antibodies in more detail, by analysis of full dose-response curves.

[2] = molecular target: T3, recombinant hIgG1 Fc-tagged cynomolgus monkey B7H4 (Creative BioMart, cat. no. VTCN1-1517R) (cynomolgus monkey, UniProt Q7Z7D3 25-259 (human entry)); assay: BLI (Octet HTX); Fc-tagged cynomolgus B7H4 coupled to AR2G sensor, bispecific antibody in solution (monovalent B7H4 binding); 1st experiment
T3 construct: Bought protein; also called cynomolgus monkey B7H4 extracellular domain
T3 sequence: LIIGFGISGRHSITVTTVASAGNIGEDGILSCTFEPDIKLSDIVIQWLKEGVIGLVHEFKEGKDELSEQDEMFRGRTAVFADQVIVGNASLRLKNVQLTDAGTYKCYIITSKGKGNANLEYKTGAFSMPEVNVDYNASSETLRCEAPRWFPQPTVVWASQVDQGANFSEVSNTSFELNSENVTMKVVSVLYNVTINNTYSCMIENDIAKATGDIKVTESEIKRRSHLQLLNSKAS
Protocol: In addition, the affinity of for cynomolgus monkey B7H4 was determined by BLI. […] Amine Reactive 2nd Generation (AR2G) biosensors (FortéBio, cat. no. 18-5092) were activated by reaction with 20 mM EDC (N-(3-Dimethylaminopropyl)-N′-ethylcarbodiimide hydrochloride) (FortéBio, cat. no. 18-1033) and 10 mM s-NHS (N-hydroxysulfosuccinimide sodium salt) (FortéBio, cat. no. 18-1067) for 300 s. The activated sensors were loaded with 10 μg/mL recombinant hIgG1 Fc-tagged cynomolgus monkey B7H4 (Creative BioMart, cat. no. VTCN1-1517R) in 10 mM Sodium Acetate pH 4.0 (FortéBio, cat. no. 18-1068) for 600 s and quenched with 1 M ethanolamine pH 8.5 (FortéBio, cat. no. 18-1071) for 300 s. […] A molecular mass of 150 kDa of the antibodies was used for calculations. For each antibody a reference sensor was used, which was incubated with Sample Diluent instead of antibody.
(§2) Data were acquired using Data Acquisition Software v9.0.0.49d (FortéBio) and analyzed with Data Analysis Software v9.0.0.12 (FortéBio). Data traces were corrected per antibody by subtraction of the reference sensor. The Y-axis was aligned to the last 10 s of the baseline, Interstep Correction alignment to dissociation and Savitzky-Golay filtering were applied. Data traces with a response<0.05 nm were excluded from analysis. The data was fitted with the 1:1 Global Full fit model using a window of interest for the association and dissociation times set at 100 s and 200 s respectively.

[3] = molecular target: T4, rabbit (Oryctolagus cuniculus) B7H4, full length, on HEK-293F cells (rabbit, UniProt Q7Z7D3 25-282 (human entry)); assay: flow cytometry, transiently transfected HEK-293F cells
T4 construct: Uniprot G1TQE8; also called rabbit B7H4
T4 chain: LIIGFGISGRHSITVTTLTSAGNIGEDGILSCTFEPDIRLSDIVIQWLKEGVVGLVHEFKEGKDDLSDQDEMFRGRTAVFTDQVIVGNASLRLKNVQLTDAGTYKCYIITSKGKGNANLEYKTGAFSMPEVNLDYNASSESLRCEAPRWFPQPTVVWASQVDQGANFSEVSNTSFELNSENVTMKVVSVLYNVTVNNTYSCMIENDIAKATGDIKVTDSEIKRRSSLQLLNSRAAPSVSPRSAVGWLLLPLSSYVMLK

[4] = molecular target: T5, rat (Rattus norvegicus) B7H4, full length, on HEK-293F cells (rat, UniProt Q501W4 25-257); assay: flow cytometry, HEK-293F cells transfected with rat B7H4 [panel Rat B7H4]
T5 construct: Uniprot Q501W4; also called rat B7H4
T5 sequence: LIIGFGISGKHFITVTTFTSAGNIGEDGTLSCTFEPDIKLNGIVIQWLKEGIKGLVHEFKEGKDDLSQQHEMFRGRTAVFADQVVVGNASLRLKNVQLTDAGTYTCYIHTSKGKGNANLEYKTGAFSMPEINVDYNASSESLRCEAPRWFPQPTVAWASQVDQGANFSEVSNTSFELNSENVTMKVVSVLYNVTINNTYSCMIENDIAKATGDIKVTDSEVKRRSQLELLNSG
Protocol: as §1

[5] = molecular target: T6, mouse B7H4 ECD-His (R&D Systems, cat. no. 2154-B7-050) (mouse, UniProt Q7TSP5 29-256); assay: BLI (Octet HTX); antibody on anti-human IgG Fc capture sensor, mouse B7H4 ECD-His in solution; 1st experiment
T6 construct: Bought ECD-His protein (26.6 kDa); also called mouse B7H4 extracellular domain
T6 sequence: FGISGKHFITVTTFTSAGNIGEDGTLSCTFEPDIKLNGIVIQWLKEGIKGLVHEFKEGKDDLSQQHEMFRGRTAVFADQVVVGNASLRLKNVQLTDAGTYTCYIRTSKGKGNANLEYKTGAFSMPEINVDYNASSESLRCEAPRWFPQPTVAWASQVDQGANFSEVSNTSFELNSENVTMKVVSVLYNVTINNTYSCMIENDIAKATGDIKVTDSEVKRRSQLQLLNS
Protocol: (§3) Target binding affinity of B7H4 antibodies was determined by label-free biolayer interferometry (BLI) on an Octet HTX instrument (FortéBio). Experiments were carried out while shaking at 1,000 RPM at 30° C. […] Anti-Human IgG Fc Capture (AHC) biosensors (FortéBio, cat. no. 18-5060) were pre-conditioned by exposure to 10 mM glycine (Sigma-Aldrich, cat. no. 15527) buffer pH 1.7 for 5 s, followed by neutralization in Sample Diluent (FortéBio, cat. no. 18-1048) for 5 s; both steps were repeated 2 times. Next, AHC sensors were loaded with antibody (1 μg/mL in Sample diluent) for 600 s. […] The theoretical molecular mass of human B7H4 and mouse B7H4 (as ECD-His tagged molecules) based on their amino acid sequences (26.8 kDa and 26.6 kDa respectively) were used for calculations. For each antibody a reference sensor was used, which was incubated with Sample Diluent instead of antigen. AHC sensors were regenerated by exposure to 10 mM glycine buffer pH 1.7 for 5 s, followed by neutralization in Sample Diluent for 5 s; both steps were repeated twice. Subsequently sensors were loaded again with antibody for the next cycle of kinetics measurements.
as §2, with “300” for “100”

[6] = molecular target: T6, mouse B7H4 ECD-His (R&D Systems, cat. …); assay: BLI (Octet HTX); antibody on anti-human IgG Fc capture sensor, mouse B7H4 ECD-His in solution; 2nd experiment
Protocol: as §3
as §2, with “300” for “100”

B1: IgG1-B7H4-C3-FEAR (antibody, V domains shown)
VH: EVQLVQSGAEVKKPGASVKVSCKASGYTFTNFWIHWVRQAPGQGLEWIGEIDPSDSYTNYNQKFKGRVTITRDTSTSTAYLELSSLRSEDTAVYYCAREITTVDYWGQGTLVTVSS
VL: DIQMTQSPSSLSASVGDRVTITCSATSSISYMHWYQQKPGKAPKGWIYDTSKLAHGVPSRFSGSGSGTDFTLTISSLQPEDFATYYCHQRRSYPFTFGQGTKVEIKR
notes: Full length IgG1 FEAR, kappa; variable domains from WO2014159835
binding result [1]: no binding (tested: 30 µg/ml)

B2: bsIgG1-huCD3-H101G-FEALxB7H4-C2-FEAR (bispecific antibody)
heavy 1: not shown
light 1: not shown
heavy 2: EVQLVQSGAEVKKPGASVKVSCKASGYTFTSYWIGWVRQAPGQGLEWIGDIYPGGGYTNYNEKFKGRVTITRDTSTSTAYLELSSLRSEDTAVYYCARLDGSSYRGAMDSWGQGTLVTVSSASTKGPSVFPLAPSSKSTSGGTAALGCLVKDYFPEPVTVSWNSGALTSGVHTFPAVLQSSGLYSLSSVVTVPSSSLGTQTYICNVNHKPSNTKVDKRVEPKSCDKTHTCPPCPAPEFEGGPSVFLFPPKPKDTLMISRTPEVTCVVVAVSHEDPEVKFNWYVDGVEVHNAKTKPREEQYNSTYRVVSVLTVLHQDWLNGKEYKCKVSNKALPAPIEKTISKAKGQPREPQVYTLPPSREEMTKNQVSLTCLVKGFYPSDIAVEWESNGQPENNYKTTPPVLDSDGSFFLYSRLTVDKSRWQQGNVFSCSVMHEALHNHYTQKSLSLSPGK
light 2: DIQMTQSPSSLSASVGDRVTITCKASQGFNKYVAWYQQKPGKAPKLLIYYTSTLQPGVPSRFSGSGSGRDYTLTISSLQPEDFATYYCLQYGNLLYAFGQGTKVEIKRTVAAPSVFIFPPSDEQLKSGTASVVCLLNNFYPREAKVQWKVDNALQSGNSQESVTEQDSKDSTYSLSSTLTLSKADYEKHKVYACEVTHQGLSSPVTKSFNRGEC
notes: also called bslgG1-huCD3-H101G-FEALxB7H4-C2-FEAR
EC50 (read off the curve) (B7H4-IgV/B7H3-IgC): ~2 µg/mL

B3: bsIgG1-huCD3-FEALxB7H4-C1-FEAR (bispecific antibody)
heavy 1: not shown
light 1: not shown
heavy 2: QVQLQQWGAGLLKPSETLSLTCAVYGGSFSGYYWSWIRQPPGKGLEWIGEINHSGSTNYNPSLKSRVTISIDTSKNQFSLKLTSVTAADTAVFYCARGLFNWNFDSWGQGTLVTVSSASTKGPSVFPLAPSSKSTSGGTAALGCLVKDYFPEPVTVSWNSGALTSGVHTFPAVLQSSGLYSLSSVVTVPSSSLGTQTYICNVNHKPSNTKVDKRVEPKSCDKTHTCPPCPAPEFEGGPSVFLFPPKPKDTLMISRTPEVTCVVVAVSHEDPEVKFNWYVDGVEVHNAKTKPREEQYNSTYRVVSVLTVLHQDWLNGKEYKCKVSNKALPAPIEKTISKAKGQPREPQVYTLPPSREEMTKNQVSLTCLVKGFYPSDIAVEWESNGQPENNYKTTPPVLDSDGSFFLYSRLTVDKSRWQQGNVFSCSVMHEALHNHYTQKSLSLSPGK
light 2: DIQMTQSPSSLSASVGDRVTITCRASQGIRNDLGWYQQKPGKAPKRLIYGASSLQSGVPSRFSGSGSGTEFTLTISSLQPEDFATYYCLQHNSYPRTFGQGTTVEIKRTVAAPSVFIFPPSDEQLKSGTASVVCLLNNFYPREAKVQWKVDNALQSGNSQESVTEQDSKDSTYSLSSTLTLSKADYEKHKVYACEVTHQGLSSPVTKSFNRGEC
notes: also called bslgG1-huCD3-FEALxB7H4-C1-FEAR
Kd [2]: 5.1 nM
koff [2]: 0.0014 s⁻¹
kon [2]: 270000 M⁻¹ s⁻¹

B4: IgG1-B7H4-C2-FEAR (antibody, V domains shown)
VH: EVQLVQSGAEVKKPGASVKVSCKASGYTFTSYWIGWVRQAPGQGLEWIGDIYPGGGYTNYNEKFKGRVTITRDTSTSTAYLELSSLRSEDTAVYYCARLDGSSYRGAMDSWGQGTLVTVSS
VL: DIQMTQSPSSLSASVGDRVTITCKASQGFNKYVAWYQQKPGKAPKLLIYYTSTLQPGVPSRFSGSGSGRDYTLTISSLQPEDFATYYCLQYGNLLYAFGQGTKVEIKR
notes: as for B1
binding result [3]: binds
binding result [1]: binds
binding result [4]: binds
Kd [5]: 24 nM
koff [5]: 0.00077 s⁻¹
kon [5]: 33000 M⁻¹ s⁻¹
Kd [6]: 2.1 nM
koff [6]: 0.00013 s⁻¹
kon [6]: 63000 M⁻¹ s⁻¹
